{
  "source": "patent US20240417762A1",
  "about": "“MICROORGANISMS AND METHODS FOR PRODUCING REUTERIN” (Wisconsin Alumni Research Foundation, priority 2023, published 2024)",
  "molecules": {"B1": {"name": "Orf14: Limosilactobacillus reuteri Orf14 phage protein (SEQ ID NO:2), overexpressed from pSIP-orf14 (protein, listed as Lactobacillus reuteri)", "chain": "VIYMNKIKRLCKKYQQVIYTLFAVLVIISVVYFALHGFDSFVKWATTDVGSVADWAGSIGTILAFVAVIWQQGRQENITRAVHIEESRPRFSLTYTPKPVLKTRVLFWGNGRTAVNINEILGSRSAENYRFISIENISNNVVYDYSIILKYHSNDNARVRKDYWSSHGLFPRRSVAIVPKFMGTDKDKIGNYIYDELLVKFTTPANEVGFFISKNINNAQTDSSFGKSQYYFVRGSHVKRVTAINTDKMIDVDSSICRKLDKEFDEIIGITSLGEINENGKLS"}, "B2": {"name": "Orf14-mucosae: Limosilactobacillus mucosae Orf14 protein (SEQ ID NO:4), natural homolog, codon optimized for expression in L. reuteri (protein, listed as Lactobacillus mucosae)", "chain": "MKRVKELCKKYQQVIYTLLAVVAIVGVVYFALHGFNSFIKWATTDVGSVADWAGSIGTILAFIAVIWQQGRQENITRAVHVEESRPRFSVTYTPKPQAKTKMLFWGNNRTLSQINTMLNNRNGENYRFINIENISNNVVYDYSIILKYHFYDNSLVRKDYWSSHGLFPRRSIIIVPKFLGTGKDKIGNYIYDELLIKFTTPANEIGFFKMTNVNGNRTDSSFGDSQYYFVRGSHIKRVTAINTDEMIKADSPLCRKLDREFSETTGGTNFGAIGEDGKAY"}},
  "system": "reuterin production",
  "test": "Determination of reuterin formation during growth of L. reuteri ATCC PTA-6475 and its variants",
  "format": "cell-based, Limosilactobacillus reuteri",
  "procedure": "FIGS. 5A-5E. Reuterin production of L. reuteri ATCC PTA-6475 and its variants during the growth. Overnight cells were inoculated to reach an initial OD 0.1 in mMRS supplemented with 100 mM glucose and 40 mM glycerol. Supernatant was collected every hour during the growth at 37° C. and the reuterin concentrations were determined. The number of cells of each strain at each time point was normalized to an OD of 3. Data are shown as means±standard deviations for three independent experiments. Statistical significance was determined by unpaired t-test. * P<0.05; **** P<0.0001. In FIGS. 5C and 5D, “orf14” refers to orf14 from L. reuteri. In FIG. 5E, the origins of the orf14 genes (L. mucosae or L. reuteri) are indicated.\nTo characterize the reuterin production during growth, strains were cultured at 37° C. anacrobically in deMan-Rogosa-Sharpe medium (MRS; 288110, BD BioSciences) for 18 h, and then bacteria were sub-cultured to reach an initial OD600 of 0.1 in modified MRS (10 g peptone, 10 g beef extract, 5 g yeast extract, 2 g ammonium citrate dibasic, 2 g K2HPO4, 0.1 g MgSO4, 0.05 g MnSO4, and 1.0 g Tween 80 per liter) supplemented with 100 mM glucose. Cultures were incubated anaerobically at 37° C. Strains harboring pSIP411 or its variants were grown in mMRS supplemented with 5 μg/mL erythromycin. Where applicable, induction peptide (10 ng/ml) (MAGNSSNFIHKIKQIFTHR (SEQ ID NO:34)) was added. Samples were collected every hour up to 8 hours. Cell density was monitored using GENESYS 20 visible spectrophotometer (Thermo Scientific) and reuterin production was measured as described in Zhang et al. 2020. Briefly, cell-free supernatants (50 μL) were mixed with 37.5 μL tryptophan (Sigma-Aldrich) in a 96 well plate, followed by an addition of 150 μL 37% HCl (Thermo scientific). After incubating at 37° C. for 20 min, OD560 was measured by GloMax plate reader (Promega). Two-fold dilutions of acrolein (06-722-501, ThermoFisher) were used to generate a standard curve to quantify reuterin (Doleyres et al. 2005). […]",
  "data": [
    {"molecule": "B1", "values": [
      {"measurement": "increase in reuterin production compared to that in the wildtype strain", "setting": "Orf14 overexpressed in L. reuteriΔΦ1ΔΦ2, following 5 h incubation, P<0.05", "value": 3, "unit": "fold"},
      {"measurement": "reuterin production", "setting": "growth at 37° C. in mMRS with 100 mM glucose and 40 mM glycerol, supernatant, normalized to OD 3", "value": "rescued reuterin production"}
    ]},
    {"molecule": "B2", "values": [
      {"measurement": "higher reuterin production compared to the overexpression of native Orf14", "setting": "overexpression in L. reuteri (FIG. 5E)", "value": 2.9, "unit": "fold"}
    ]}
  ]
}
